This sample holds only a part of the variants without activity.
B1: TPR 5TU (parent)
chain: GGAUCUUCUCGAUCUAACAAAAAAGACAAAUCUGCCACAAAGCUUGAGAGCAUCUUCGGAUGCAGAGGCGGCAGCCUUCGGUGGCGCGAUAGCGCCAACGUUCUCAACUAUGACACGCAAAACGCGUGCUCCGUUGAAUGGAGUUUAUCAUG

Variants of: B1
Assay: polymerase ribozyme fitness, log enrichment relative to wild type (log ratio); higher = more active; in vitro selection for triplet polymerase activity
Outline: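 Fitness compares each genotype's enrichment to that of the wild type on a logarithmic scale, averaging replicates with inverse-variance weights. The logarithm is base 2. Enrichment came from Illumina sequencing of input and output libraries after one triplicate round of in vitro selection, which included frozen incubation at −7 °C, of PCR-built, transcribed mutant libraries of each subunit of a heterodimeric triplet polymerase ribozyme. Only genotypes with ≥10 input reads and ≥1 read per output were kept.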

C5A U44C C76A G84A C131U A150U and U33G G94A C123G G136A cannot be ordered by “polymerase ribozyme fitness (log ratio)” value: ≤ -4.2 for the first, ≤ -4.2 for the second.

Compared with C54A A121U G141C, A40C C85G A106G G117C is higher in “polymerase ribozyme fitness (log ratio)” value: -1.65 for the first, -1.29 for the second.

First: C87U A89G C103U A115C C123U G143U
Second: A40U A89C
The “polymerase ribozyme fitness (log ratio)” value of the first is lower: ≤ -4.2 for the first, -0.129 for the second.

Compared with U82C C95A, G34C G58A G68C G84A U90G A120G C125G is lower in “polymerase ribozyme fitness (log ratio)” value: -1.46 for the first, ≤ -4.2 for the second.

Compared with G59A A122U, A21U G141A is higher in “polymerase ribozyme fitness (log ratio)” value: 0.148 for the first, 1.36 for the second.

U31G A39C G50A G92U G117A G140U U145A A147G and U15C A24G A39G G83A C99G cannot be ordered by “polymerase ribozyme fitness (log ratio)” value: ≤ -4.2 for the first, ≤ -4.2 for the second.

Going from U13G A37U U55A C57A C76U G86A U127C to C51G A60G, the “polymerase ribozyme fitness (log ratio)” value rises from ≤ -4.2 to -1.74.

Compared with A37U U55A A91G A98U U148A, U53A U61A A106U C129U is higher in “polymerase ribozyme fitness (log ratio)” value: ≤ -4.2 for the first, -3.27 for the second.

Compared with A40G G58C G94A G141A, U77C C79U C132A is lower in “polymerase ribozyme fitness (log ratio)” value: -3.65 for the first, ≤ -4.2 for the second.

U53A G152U and G58A G83A C87U U101G G141C are within 0.2 log units of each other in “polymerase ribozyme fitness (log ratio)” value: -3.33 for the first, -3.39 for the second.

Compared with G50A U55A, A19U G25U A49C U55G U56G C85U A98G A106G C118U G133A U145G is lower in “polymerase ribozyme fitness (log ratio)” value: -1.34 for the first, ≤ -4.2 for the second.

First: G25A C54A G84U C114U A115G A121C U145G A150U
Second: C32U G59C G84A
The “polymerase ribozyme fitness (log ratio)” value of the first is lower: ≤ -4.2 for the first, -1.81 for the second.

First: A91G C114A C116U A137C
Second: C14A A39G G42A U82C G88C
The “polymerase ribozyme fitness (log ratio)” value of the first is higher: -3.79 for the first, ≤ -4.2 for the second.

A29U A49C G68U A73C A91C C103G and C38U A49C A66G A138U U144C cannot be ordered by “polymerase ribozyme fitness (log ratio)” value: ≤ -4.2 for the first, ≤ -4.2 for the second.

Compared with C54U U56A G133C, A21G C85A is higher in “polymerase ribozyme fitness (log ratio)” value: -1.7 for the first, -1.12 for the second.

U9A A21G A41C G48U A49C U111G C131A and U9C A40C U45A G65C C85A U111G A113U C118G cannot be ordered by “polymerase ribozyme fitness (log ratio)” value: ≤ -4.2 for the first, ≤ -4.2 for the second.

A3C C57U C93A and C14U U55A G126A C132U are within 0.2 log units of each other in “polymerase ribozyme fitness (log ratio)” value: -1.56 for the first, -1.73 for the second.

G11A C51G C87G A89U C125A U135G and C38U U45A U55C U101G cannot be ordered by “polymerase ribozyme fitness (log ratio)” value: ≤ -4.2 for the first, ≤ -4.2 for the second.

Going from U31C A98U U134A to A3U A16C A20C A47U U53G G86A A110G, the “polymerase ribozyme fitness (log ratio)” value falls from -1.41 to ≤ -4.2.

First: G50C G68U C85U G92U A106G
Second: A20U C32A C99A A115G A120U
The “polymerase ribozyme fitness (log ratio)” value of the first is lower: ≤ -4.2 for the first, -4.05 for the second.

Going from A49C G62A C87A G140C to U144C U145C, the “polymerase ribozyme fitness (log ratio)” value rises from ≤ -4.2 to -0.39.

First: A19C G88C
Second: A39C A142U
The “polymerase ribozyme fitness (log ratio)” value of the first is lower: -3.96 for the first, -3.34 for the second.

C32G C87G C93U C99G U104A C123U and C38G A41U C79U G92C C123A cannot be ordered by “polymerase ribozyme fitness (log ratio)” value: ≤ -4.2 for the first, ≤ -4.2 for the second.

First: A16U G65A C69A A91U C93A G100C U101G C123G
Second: U56G G83U C125U
The “polymerase ribozyme fitness (log ratio)” value of the first is lower: ≤ -4.2 for the first, -1.82 for the second.

First: A60U C85G A89U
Second: U4A A12U G84A A89G
The “polymerase ribozyme fitness (log ratio)” value of the first is lower: ≤ -4.2 for the first, -0.965 for the second.

First: A22U C96U
Second: A30C A41C C43U U53A C93U C125U A137G
The “polymerase ribozyme fitness (log ratio)” value of the first is higher: 0.237 for the first, ≤ -4.2 for the second.

Going from C8A U31G U33G A40U C51U U77C C93G C108G C116U A147G to C35U C75U G83A G84A C95U C96U, the “polymerase ribozyme fitness (log ratio)” value rises from ≤ -4.2 to -1.5.

Going from A37C C43U G68U A73C C79G C95U U148G to G141U U146A, the “polymerase ribozyme fitness (log ratio)” value rises from ≤ -4.2 to 0.37.

First: U55G G94A
Second: C132G G133U
The “polymerase ribozyme fitness (log ratio)” value of the first is higher: -1.43 for the first, -2.9 for the second.

Compared with G84A A119U, A26U G84C U145G is lower in “polymerase ribozyme fitness (log ratio)” value: -0.787 for the first, ≤ -4.2 for the second.

A3G C27U G50A C51U C85A G140U and A30C U111G C129U G136U cannot be ordered by “polymerase ribozyme fitness (log ratio)” value: ≤ -4.2 for the first, ≤ -4.2 for the second.

C10A A12G A17U C32A C96U A110U C116U A147C and G50A C54U G80A U82G G88A G92A C93G U145A cannot be ordered by “polymerase ribozyme fitness (log ratio)” value: ≤ -4.2 for the first, ≤ -4.2 for the second.

First: U44A G117A U135G
Second: C43G C95U C96A
The “polymerase ribozyme fitness (log ratio)” value of the first is lower: ≤ -4.2 for the first, -4.15 for the second.

First: C10G A20C A40U A64G G70U C87U
Second: G50A G136U U144G U146C
The “polymerase ribozyme fitness (log ratio)” value of the first is lower: ≤ -4.2 for the first, -2.38 for the second.

A12G C85U C129A U151C and C8G G70C C93U C99U U148G cannot be ordered by “polymerase ribozyme fitness (log ratio)” value: ≤ -4.2 for the first, ≤ -4.2 for the second.

Going from A19G A20U C36U C96G to A23C A40C G83U U102A U145A, the “polymerase ribozyme fitness (log ratio)” value falls from -3.67 to ≤ -4.2.

Compared with G81A G86A C99G, A49C G65U G84U C96U A121U C125G is lower in “polymerase ribozyme fitness (log ratio)” value: -1.98 for the first, ≤ -4.2 for the second.

First: A19U C57A A60C C93A
Second: C14A U55A C75U A120U
The “polymerase ribozyme fitness (log ratio)” value of the first is lower: ≤ -4.2 for the first, -2.39 for the second.

A49C U56C and G25C C27U U45C G71U U82A G83A G92U cannot be ordered by “polymerase ribozyme fitness (log ratio)” value: ≤ -4.2 for the first, ≤ -4.2 for the second.

Compared with C54U U82G, G92C G94A is lower in “polymerase ribozyme fitness (log ratio)” value: 0.0533 for the first, -2.95 for the second.

Going from C14U U15A C93U U101A to C95U C96A, the “polymerase ribozyme fitness (log ratio)” value rises from -2.56 to -1.02.

With U55G A89U C132G the “polymerase ribozyme fitness (log ratio)” value was -3.98.

Reference: the RNAGym collection of RNA variant scans (doi:10.1073/pnas.2313332121)
